Assay results from ChEMBL document CHEMBL2203217, “Prohormone-substrate peptide sequence recognition by peptidylglycine α-amidating monooxygenase and its reflection in increased glycolate inhibitor potency” (Bioorg Med Chem Lett, 2012).

Key:
[1] = substrate: CC[C@H](C)[C@@H]1NC(=O)[C@H](Cc2ccc(O)cc2)NC(=O)[C@@H](N)CSSC[C@@H](C(=O)N2CCC[C@H]2C(=O)N[C@@H](CC(C)C)C(=O)NCC(=O)NCC(=O)O)NC(=O)[C@H](CC(N)=O)NC(=O)[C@H](CCC(N)=O)NC1=O; assay: (§1) Binding affinity to secreted PAM in human DMS53 cell culture medium after 2 hrs by HPLC analysis; settings: DMS-53
[2] = substrate: CC(C)[C@H](N)C(=O)NCC(=O)N[C@@H](C)C(=O)N[C@@H](Cc1ccccc1)C(=O)NCC(=O)O; assay: as §1; settings: DMS-53
[3] = substrate: CC(=O)N[C@@H](CC(C)C)C(=O)N[C@@H](Cc1ccccc1)C(=O)NCC(=O)O; assay: as §1; settings: DMS-53
[4] = substrate: CC(=O)N1CCC[C@H]1C(=O)N[C@@H](CC(C)C)C(=O)N[C@@H](Cc1ccccc1)C(=O)NCC(=O)O; assay: as §1; settings: DMS-53
[5] = substrate: CC(=O)NCC(=O)O; assay: as §1; settings: DMS-53
[6] = substrate: CC(=O)N[C@@H](Cc1ccccc1)C(=O)NCC(=O)O; assay: as §1; settings: DMS-53
[7] = substrate: CC(=O)N1CCC[C@H]1C(=O)N[C@@H](CC(C)C)C(=O)NCC(=O)NCC(=O)O; assay: as §1; settings: DMS-53
[8] = substrate: CC[C@H](C)[C@@H]1NC(=O)[C@H](Cc2ccc(O)cc2)NC(=O)[C@@H](N)CSSC[C@@H](C(=O)N2CCC[C@H]2C(=O)N[C@@H](CC(C)C)C(=O)N[C@@H](Cc2ccccc2)C(=O)NCC(=O)O)NC(=O)[C@H](CC(N)=O)NC(=O)[C@H](CCC(N)=O)NC1=O; assay: as §1; settings: DMS-53
[9] = substrate: N[C@@H](Cc1ccccc1)C(=O)NCC(=O)O; assay: as §1; settings: DMS-53
[10] = substrate: CC[C@H](C)[C@H](NC(=O)[C@H](C)NC(=O)[C@@H](NC(=O)[C@H](CCC(N)=O)NC(=O)[C@@H]1CCCN1C(=O)[C@H](Cc1ccccc1)NC(=O)[C@@H](NC(=O)[C@H](Cc1cnc[nH]1)NC(=O)[C@H](Cc1ccccc1)NC(=O)[C@H](CCCCN)NC(=O)[C@H](CC(N)=O)NC(=O)[C@H](Cc1ccccc1)NC(=O)[C@H](CC(=O)O)NC(=O)[C@H](CCC(N)=O)NC(=O)[C@@H](NC(=O)[C@H](Cc1ccc(O)cc1)NC(=O)[C@@H](NC(=O)CNC(=O)[C@H](CC(C)C)NC(=O)[C@H](CCSC)NC(=O)[C@@H]1CSSC[C@H](N)C(=O)NCC(=O)N[C@@H](CC(N)=O)C(=O)N[C@@H](CC(C)C)C(=O)N[C@@H](CO)C(=O)N[C@@H]([C@@H](C)O)C(=O)N1)[C@@H](C)O)[C@@H](C)O)[C@@H](C)O)[C@@H](C)O)C(=O)NCC(=O)N[C@H](C(=O)NCC(=O)N[C@@H](C)C(=O)N[C@@H](Cc1ccccc1)C(=O)NCC(=O)O)C(C)C; assay: as §1; settings: DMS-53
[11] = substrate: CC(=O)N[C@@H](CC(C)C)C(=O)NCC(=O)NCC(=O)O; assay: as §1; settings: DMS-53
[12] = substrate: C[C@H](N)C(=O)N1CCC[C@H]1C(=O)NCC(=O)O; assay: as §1; settings: DMS-53
[13] = substrate: C[C@H](NC(=O)CN)C(=O)N[C@@H](Cc1ccccc1)C(=O)NCC(=O)O; assay: as §1; settings: DMS-53
[14] = substrate: CC(C)[C@H](N)C(=O)NCC(=O)N[C@@H](C)C(=O)N1CCC[C@H]1C(=O)NCC(=O)O; assay: as §1; settings: DMS-53
[15] = substrate: C[C@H](NC(=O)CN)C(=O)N1CCC[C@H]1C(=O)NCC(=O)O; assay: as §1; settings: DMS-53
[16] = substrate: CC(=O)NCC(=O)NCC(=O)O; assay: as §1; settings: DMS-53
[17] = substrate: O=C(O)CNC(=O)[C@@H]1CCCN1; assay: as §1; settings: DMS-53
[18] = substrate: C[C@H](N)C(=O)N[C@@H](Cc1ccccc1)C(=O)NCC(=O)O; assay: as §1; settings: DMS-53
[19] = substrate: CC[C@H](C)[C@H](NC(=O)[C@H](C)NC(=O)[C@@H](NC(=O)[C@H](CCC(N)=O)NC(=O)[C@@H]1CCCN1C(=O)[C@H](Cc1ccccc1)NC(=O)[C@@H](NC(=O)[C@H](Cc1cnc[nH]1)NC(=O)[C@H](Cc1ccccc1)NC(=O)[C@H](CCCCN)NC(=O)[C@H](CC(N)=O)NC(=O)[C@H](Cc1ccccc1)NC(=O)[C@H](CC(=O)O)NC(=O)[C@H](CCC(N)=O)NC(=O)[C@@H](NC(=O)[C@H](Cc1ccc(O)cc1)NC(=O)[C@@H](NC(=O)CNC(=O)[C@H](CC(C)C)NC(=O)[C@H](CCSC)NC(=O)[C@@H]1CSSC[C@H](N)C(=O)NCC(=O)N[C@@H](CC(N)=O)C(=O)N[C@@H](CC(C)C)C(=O)N[C@@H](CO)C(=O)N[C@@H]([C@@H](C)O)C(=O)N1)[C@@H](C)O)[C@@H](C)O)[C@@H](C)O)[C@@H](C)O)C(=O)NCC(=O)N[C@H](C(=O)NCC(=O)N[C@@H](C)C(=O)N1CCC[C@H]1C(=O)NCC(=O)O)C(C)C; assay: as §1; settings: DMS-53
[20] = substrate: CC[C@H](C)[C@@H]1NC(=O)[C@H](Cc2ccc(O)cc2)NC(=O)[C@@H](N)CSSC[C@@H](C(=O)N2CCC[C@H]2C(=O)N[C@@H](CC(C)C)C(=O)NCC(=O)NCC(=O)O)NC(=O)[C@H](CC(N)=O)NC(=O)[C@H](CCC(N)=O)NC1=O; assay: (§2) Binding affinity to PAM in human DMS53 cells after 2 hrs by HPLC analysis; format: cell-based
[21] = substrate: CC(C)[C@H](N)C(=O)NCC(=O)N[C@@H](C)C(=O)N[C@@H](Cc1ccccc1)C(=O)NCC(=O)O; assay: as §2; format: cell-based
[22] = substrate: CC(=O)N[C@@H](CC(C)C)C(=O)N[C@@H](Cc1ccccc1)C(=O)NCC(=O)O; assay: as §2; format: cell-based
[23] = substrate: CC(=O)N1CCC[C@H]1C(=O)N[C@@H](CC(C)C)C(=O)N[C@@H](Cc1ccccc1)C(=O)NCC(=O)O; assay: as §2; format: cell-based
[24] = substrate: CC(=O)NCC(=O)O; assay: as §2; format: cell-based
[25] = substrate: CC(=O)N[C@@H](Cc1ccccc1)C(=O)NCC(=O)O; assay: as §2; format: cell-based
[26] = substrate: CC(=O)N1CCC[C@H]1C(=O)N[C@@H](CC(C)C)C(=O)NCC(=O)NCC(=O)O; assay: as §2; format: cell-based
[27] = substrate: CC[C@H](C)[C@@H]1NC(=O)[C@H](Cc2ccc(O)cc2)NC(=O)[C@@H](N)CSSC[C@@H](C(=O)N2CCC[C@H]2C(=O)N[C@@H](CC(C)C)C(=O)N[C@@H](Cc2ccccc2)C(=O)NCC(=O)O)NC(=O)[C@H](CC(N)=O)NC(=O)[C@H](CCC(N)=O)NC1=O; assay: as §2; format: cell-based
[28] = substrate: N[C@@H](Cc1ccccc1)C(=O)NCC(=O)O; assay: as §2; format: cell-based
[29] = substrate: CC[C@H](C)[C@H](NC(=O)[C@H](C)NC(=O)[C@@H](NC(=O)[C@H](CCC(N)=O)NC(=O)[C@@H]1CCCN1C(=O)[C@H](Cc1ccccc1)NC(=O)[C@@H](NC(=O)[C@H](Cc1cnc[nH]1)NC(=O)[C@H](Cc1ccccc1)NC(=O)[C@H](CCCCN)NC(=O)[C@H](CC(N)=O)NC(=O)[C@H](Cc1ccccc1)NC(=O)[C@H](CC(=O)O)NC(=O)[C@H](CCC(N)=O)NC(=O)[C@@H](NC(=O)[C@H](Cc1ccc(O)cc1)NC(=O)[C@@H](NC(=O)CNC(=O)[C@H](CC(C)C)NC(=O)[C@H](CCSC)NC(=O)[C@@H]1CSSC[C@H](N)C(=O)NCC(=O)N[C@@H](CC(N)=O)C(=O)N[C@@H](CC(C)C)C(=O)N[C@@H](CO)C(=O)N[C@@H]([C@@H](C)O)C(=O)N1)[C@@H](C)O)[C@@H](C)O)[C@@H](C)O)[C@@H](C)O)C(=O)NCC(=O)N[C@H](C(=O)NCC(=O)N[C@@H](C)C(=O)N[C@@H](Cc1ccccc1)C(=O)NCC(=O)O)C(C)C; assay: as §2; format: cell-based
[30] = substrate: CC(=O)N[C@@H](CC(C)C)C(=O)NCC(=O)NCC(=O)O; assay: as §2; format: cell-based
[31] = substrate: C[C@H](N)C(=O)N1CCC[C@H]1C(=O)NCC(=O)O; assay: as §2; format: cell-based
[32] = substrate: C[C@H](NC(=O)CN)C(=O)N[C@@H](Cc1ccccc1)C(=O)NCC(=O)O; assay: as §2; format: cell-based
[33] = substrate: CC(C)[C@H](N)C(=O)NCC(=O)N[C@@H](C)C(=O)N1CCC[C@H]1C(=O)NCC(=O)O; assay: as §2; format: cell-based
[34] = substrate: C[C@H](NC(=O)CN)C(=O)N1CCC[C@H]1C(=O)NCC(=O)O; assay: as §2; format: cell-based
[35] = substrate: CC(=O)NCC(=O)NCC(=O)O; assay: as §2; format: cell-based
[36] = substrate: O=C(O)CNC(=O)[C@@H]1CCCN1; assay: as §2; format: cell-based
[37] = substrate: C[C@H](N)C(=O)N[C@@H](Cc1ccccc1)C(=O)NCC(=O)O; assay: as §2; format: cell-based
[38] = substrate: CC[C@H](C)[C@H](NC(=O)[C@H](C)NC(=O)[C@@H](NC(=O)[C@H](CCC(N)=O)NC(=O)[C@@H]1CCCN1C(=O)[C@H](Cc1ccccc1)NC(=O)[C@@H](NC(=O)[C@H](Cc1cnc[nH]1)NC(=O)[C@H](Cc1ccccc1)NC(=O)[C@H](CCCCN)NC(=O)[C@H](CC(N)=O)NC(=O)[C@H](Cc1ccccc1)NC(=O)[C@H](CC(=O)O)NC(=O)[C@H](CCC(N)=O)NC(=O)[C@@H](NC(=O)[C@H](Cc1ccc(O)cc1)NC(=O)[C@@H](NC(=O)CNC(=O)[C@H](CC(C)C)NC(=O)[C@H](CCSC)NC(=O)[C@@H]1CSSC[C@H](N)C(=O)NCC(=O)N[C@@H](CC(N)=O)C(=O)N[C@@H](CC(C)C)C(=O)N[C@@H](CO)C(=O)N[C@@H]([C@@H](C)O)C(=O)N1)[C@@H](C)O)[C@@H](C)O)[C@@H](C)O)[C@@H](C)O)C(=O)NCC(=O)N[C@H](C(=O)NCC(=O)N[C@@H](C)C(=O)N1CCC[C@H]1C(=O)NCC(=O)O)C(C)C; assay: as §2; format: cell-based

B1: Peptidyl-glycine alpha-amidating monooxygenase (Homo sapiens), P19021 (protein)
chain: MAGRVPSLLVLLVFPSSCLAFRSPLSVFKRFKETTRPFSNECLGTTRPVVPIDSSDFALDIRMPGVTPKQSDTYFCMSMRIPVDEEAFVIDFKPRASMDTVHHMLLFGCNMPSSTGSYWFCDEGTCTDKANILYAWARNAPPTRLPKGVGFRVGGETGSKYFVLQVHYGDISAFRDNNKDCSGVSLHLTRLPQPLIAGMYLMMSVDTVIPAGEKVVNSDISCHYKNYPMHVFAYRVHTHHLGKVVSGYRVRNGQWTLIGRQSPQLPQAFYPVGHPVDVSFGDLLAARCVFTGEGRTEATHIGGTSSDEMCNLYIMYYMEAKHAVSFMTCTQNVAPDMFRTIPPEANIPIPVKSDMVMMHEHHKETEYKDKIPLLQQPKREEEEVLDQGDFYSLLSKLLGEREDVVHVHKYNPTEKAESESDLVAEIANVVQKKDLGRSDAREGAEHERGNAILVRDRIHKFHRLVSTLRPPESRVFSLQQPPPGEGTWEPEHTGDFHMEEALDWPGVYLLPGQVSGVALDPKNNLVIFHRGDHVWDGNSFDSKFVYQQIGLGPIEEDTILVIDPNNAAVLQSSGKNLFYLPHGLSIDKDGNYWVTDVALHQVFKLDPNNKEGPVLILGRSMQPGSDQNHFCQPTDVAVDPGTGAIYVSDGYCNSRIVQFSPSGKFITQWGEESSGSSPLPGQFTVPHSLALVPLLGQLCVADRENGRIQCFKTDTKEFVREIKHSSFGRNVFAISYIPGLLFAVNGKPHFGDQEPVQGFVMNFSNGEIIDIFKPVRKHFDMPHDIVASEDGTVYIGDAHTNTVWKFTLTEKLEHRSVKKAGIEVQEIKEAEAVVETKMENKPTSSELQKMQEKQKLIKEPGSGVPVVLITTLLVIPVVVLLAIAIFIRWKKSRAFGDSEHKLETSSGRVLGRFRGKGSGGLNLGNFFASRKGYSRKGFDRLSTEGSDQEKEDDGSESEEEYSAPLPALAPSSS
- Km [1]: 190 µM
- Km [2]: 18 µM
- Km [3]: 11 µM
- Km [4]: 7 µM
- Km [5]: 9900 µM
- Km [6]: 16 µM
- Km [7]: 550 µM
- Km [8]: 27 µM
- Km [9]: 6500 µM
- Km [10]: 14 µM
- Km [11]: 860 µM
- Km [12]: 4000 µM
- Km [13]: 35 µM
- Km [14]: 960 µM
- Km [15]: 3000 µM
- Km [16]: 1200 µM
- Km [17]: 880 µM
- Km [18]: 200 µM
- Km [19]: 200 µM
- Km [20]: 36 µM
- Km [21]: 8 µM
- Km [22]: 8 µM
- Km [23]: 6 µM
- Km [24]: 7500 µM
- Km [25]: 6 µM
- Km [26]: 660 µM
- Km [27]: 5 µM
- Km [28]: 6000 µM
- Km [29]: 8 µM
- Km [30]: 860 µM
- Km [31]: 5000 µM
- Km [32]: 40 µM
- Km [33]: 1000 µM
- Km [34]: 3000 µM
- Km [35]: 1600 µM
- Km [36]: 980 µM
- Km [37]: 180 µM
- Km [38]: 200 µM
